Measurements reported in publication doi:10.1101/2020.12.07.415471 (bioRxiv, 2020).
One block for each molecule: values may come before it.

Experiments:
[1] = molecular target: N-terminally thioredoxin (Trx)-tagged Ct domain of CaeA2 (Actinoalloteichus cyanogriseus) (UniProt M1F4W8); test: ITC
[2] = molecular target: T1, N-terminally thioredoxin (Trx)-tagged Ct domain of CaeA2 (Actinoalloteichus cyanogriseus, UniProt M1F4W8 2080-2484); test: ITC
T1 sequence (looked up): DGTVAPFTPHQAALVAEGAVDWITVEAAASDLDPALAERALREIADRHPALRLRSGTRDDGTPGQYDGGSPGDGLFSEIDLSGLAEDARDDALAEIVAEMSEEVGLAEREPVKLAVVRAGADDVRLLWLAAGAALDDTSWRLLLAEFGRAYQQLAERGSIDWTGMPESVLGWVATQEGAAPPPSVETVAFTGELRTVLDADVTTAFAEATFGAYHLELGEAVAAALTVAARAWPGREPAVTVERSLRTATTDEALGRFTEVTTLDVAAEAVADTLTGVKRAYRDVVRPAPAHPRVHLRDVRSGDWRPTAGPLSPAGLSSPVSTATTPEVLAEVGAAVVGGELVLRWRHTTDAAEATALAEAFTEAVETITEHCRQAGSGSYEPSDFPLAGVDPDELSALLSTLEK

Molecule: ColB1 (enzyme)
Kd [1]: 1180 nM

Kd [2]: 530 ± 120 nM
B1: MBP-fused CaeB1 variant (enzyme)
chain: MTTGNGAAPPPLTRLSPEDEAWRAHVRAFAEEHIAPLSDRMDRDATLDPGLREKLFSAGLMAVEAPARYGGRGGSLFQVVLTIEEVARVDPGVAVGVDVHNALVVATLLRQGTGDQKRRRLPLLATRQVGAFALSEENAGSDAFAGTTTAVPTSDGGYRINGRKRWTSNAGQADVFLVFARTEGHGSSAFLVDRTAEGLSIDPRTEQMGVRAAATADVVLTDVRVRRQDCVGGPGGGEGVAIGALDIGRIGIAAQMVGLAQGALDEAVAYSRTREQFGQPIGSYQGVRFTLADIATEVAAARALLYDVTRTVAAGTDIAERLRLTAMAKYFASQVAERAASRALEVLGGNGFTREYPLERFYRDVKAGKIYEGTSNMLLRSIAGSL
